Patent US20100009896A1

What was measured:
[1] = target: Carbonic anhydrase II (bCAII), from bovine erythrocytes (bovine) (UniProt P00921); assay: SPR Biacore T100; bCAII immobilised on CM5, branched biligand as analyte 0-1656 nM
[2] = target: Carbonic anhydrase II (bCAII), from bovine erythrocytes (bovine) (UniProt P00921); assay: SPR Biacore T100; bCAII immobilised on CM5
[3] = target: Carbonic anhydrase II (bCAII), from bovine erythrocytes (bovine) (UniProt P00921); assay: SPR KD of the biligands against fluorescence polarization KD of the anchor ligand
[4] = target: Carbonic anhydrase II (bCAII), from bovine erythrocytes (bovine) (UniProt P00921); assay: SPR Biacore T100; bCAII immobilised on CM5, biligand as analyte 2 nM-5 µM, 1:1 fit
[5] = target: Carbonic anhydrase II (bCAII), from bovine erythrocytes (bovine) (UniProt P00921); assay: dot blot; antigen spotted on nitrocellulose, biotinylated biligand anchor in 0.1% serum, streptavidin-HRP
[6] = target: human carbonic anhydrase II (hCAII) (human) (UniProt P00918); assay: as above
[7] = target: Carbonic anhydrase II (bCAII), from bovine erythrocytes (bovine) (UniProt P00921); assay: fluorescence polarization; 6 µM FITC-peptide titrated with bCAII 0.2-800 µM in PBS + 3% DMSO
[8] = target: Carbonic anhydrase II (bCAII), from bovine erythrocytes (bovine) (UniProt P00921); assay: SPR
[9] = target: Carbonic anhydrase II (bCAII), from bovine erythrocytes (bovine) (UniProt P00921); assay: SPR KD of the triligand against SPR KD of the biligand
[10] = target: human carbonic anhydrase II (hCAII) (human) (UniProt P00918); assay: as above
[11] = target: Carbonic anhydrase II (bCAII), from bovine erythrocytes (bovine) (UniProt P00921); assay: SPR Biacore T100; bCAII immobilised on CM5, triligand as analyte 0.1-162 nM, 1:1 fit
[12] = target: human carbonic anhydrase II (hCAII) (human) (UniProt P00918); assay: SPR Biacore T100; hCAII immobilised on CM5, triligand as analyte 0.1-162 nM, 1:1 fit
[13] = target: Carbonic anhydrase II (bCAII), from bovine erythrocytes (bovine) (UniProt P00921); assay: SPR KD of the biligand against fluorescence polarization KD of the anchor ligand

Chain of Carbonic anhydrase II (bCAII), from bovine erythrocytes (bovine) (P00921 2-260 limits assumed): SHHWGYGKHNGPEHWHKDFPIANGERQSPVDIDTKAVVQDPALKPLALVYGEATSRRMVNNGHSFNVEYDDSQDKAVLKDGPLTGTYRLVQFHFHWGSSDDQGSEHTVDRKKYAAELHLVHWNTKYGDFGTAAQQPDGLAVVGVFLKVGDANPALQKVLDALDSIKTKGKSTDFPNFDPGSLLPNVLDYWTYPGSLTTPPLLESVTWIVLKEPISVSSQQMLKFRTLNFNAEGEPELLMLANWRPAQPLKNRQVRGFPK

Question: How did the Kd [1] turn out when “branched biligand capture agent vkw(Tz1)fw-kfwlkl (peptide)” was run?
Answer: Its Kd is 500 nM.

Question: What does the source list for biligand lklwfk-Tz1-kiwiG (peptide)?
Answer: Kd [2]: 1000 nM; fold affinity enhancement over anchor ligand [3]: 150 fold; Kd [4]: 11000 nM

Question: With “biotinylated biligand anchor Biotin-(EG)5-(D-Pra)-kwlwGl-Tz1-kfwlkl (FIG. 14) (peptide)” as the substance, how does the fold reduction of dot blot sensitivity against the triligand [5] read?
Answer: The fold reduction of dot blot sensitivity against the triligand was 10 fold.

Question: And the fold reduction of dot blot sensitivity against the triligand [6]?
Answer: Its fold reduction of dot blot sensitivity against the triligand is 10 fold.

Question: For “fluoresceinated anchor ligand lklwfk-(D-Pra) (peptide)”, which Kd [7] is on record?
Answer: Its Kd is 500000 nM.

Question: What does the source list for “triligand rfviln-Tz2-kwlwGl-Tz1-kfwlkl (peptide)”?
Answer: Kd [8]: 60 nM; fold affinity enhancement over biligand [9]: 50 fold; fold affinity enhancement over biligand [10]: 50 fold; Kd [11]: 64 nM; Kd [12]: 45 nM

Question: Which Kd [2] does the source give for biligand kwlwGl-Tz1-kfwlkl (peptide) here?
Answer: The Kd was 1000 nM.

Question: And the fold improvement of dissociation constant over anchor ligand lklwfk-(D-Pra) [13]?
Answer: Its fold improvement of dissociation constant over anchor ligand lklwfk-(D-Pra) is 150 fold.

Question: And the Kd [4]?
Answer: The Kd was 3000 nM.
